Test results taken from publication PMC11341764, “Sae2 controls Mre11 endo- and exonuclease activities by different mechanisms” (Nature Communications, 2024).
Blank lines part the entries; values can stand above or below the molecule they belong to.

B1: Rad50-FLAG (wild-type) (natural protein, yeast, UniProt P12753 1-1312, looked up)
chain: MSAIYKLSIQGIRSFDSNDRETIEFGKPLTLIVGMNGSGKTTIIECLKYATTGDLPPNSKGGVFIHDPKITGEKDIRAQVKLAFTSANGLNMIVTRNIQLLMKKTTTTFKTLEGQLVAINNSGDRSTLSTRSLELDAQVPLYLGVPKAILEYVIFCHQEDSLWPLSEPSNLKKKFDEIFQAMKFTKALDNLKSIKKDMSVDIKLLKQSVEHLKLDKDRSKAMKLNIHQLQTKIDQYNEEVSEIESQLNEITEKSDKLFKSNQDFQKILSKVENLKNTKLSISDQVKRLSNSIDILDLSKPDLQNLLANFSKVLMDKNNQLRDLETDISSLKDRQSSLQSLSNSLIRRQGELEAGKETYEKNRNHLSSLKEAFQHKFQGLSNIENSDMAQVNHEMSQFKAFISQDLTDTIDQFAKDIQLKETNLSDLIKSITVDSQNLEYNKKDRSKLIHDSEELAEKLKSFKSLSTQDSLNHELENLKTYKEKLQSWESENIIPKLNQKIEEKNNEMIILENQIEKFQDRIMKTNQQADLYAKLGLIKKSINTKLDELQKITEKLQNDSRIRQVFPLTQEFQRADLEMDFQKLFINMQKNIAINNKKMHELDRRYTNALYNLNTIEKDLQDNQKSKEKVIQLLSENLPEDCTIDEYNDVLEETELSYKTALENLKMHQTTLEFNRKALEIAERDSCCYLCSRKFENESFKSKLLQELKTKTDANFEKTLKDTVQNEKEYLHSLRLLEKHIITLNSINEKIDNSQKCLEKAKEETKTSKSKLDELEVDSTKLKDEKELAESEIRPLIEKFTYLEKELKDLENSSKTISEELSIYNTSEDGIQTVDELRDQQRKMNDSLRELRKTISDLQMEKDEKVRENSRMINLIKEKELTVSEIESSLTQKQNIDDSIRSKRENINDIDSRVKELEARIISLKNKKDEAQSVLDKVKNERDIQVRNKQKTVADINRLIDRFQTIYNEVVDFEAKGFDELQTTIKELELNKAQMLELKEQLDLKSNEVNEEKRKLADSNNEEKNLKQNLELIELKSQLQHIESEISRLDVQNAEAERDKYQEESLRLRTRFEKLSSENAGKLGEMKQLQNQIDSLTHQLRTDYKDIEKNYHKEWVELQTRSFVTDDIDVYSKALDSAIMKYHGLKMQDINRIIDELWKRTYSGTDIDTIKIRSDEVSSTVKGKSYNYRVVMYKQDVELDMRGRCSAGQKVLASIIIRLALSETFGANCGVIALDEPTTNLDEENIESLAKSLHNIINMRRHQKNFQLIVITHDEKFLGHMNAAAFTDHFFKVKRDDRQKSQIEWVDINRVTY
notes: Rad50, yeast, expressed from the pFB-RAD50-FLAG vector; Dimeric by mass photometry; also called Rad50-WT; wild-type Rad50 protein

Key:
Rad50-C47-FLAG (yeast) = Rad50-C47-FLAG (yeast) (UniProt P12753); assay: mass photometry; Rad50 variants alone; molecular weight estimated
[1] = biological target: the molecule itself; assay: as above
Rad50-FLAG (wild-type) = biological target: B1; assay: pull-down; MBP-pSae2 (bait) from Sf9 extracts immobilised on amylose resin and washed, incubated 1 h at 4 °C with 2.5 μg purified Rad50-FLAG variants (prey); 50 mM Tris-HCl pH 7.5, 2 mM EDTA, 80 mM NaCl, 0.2% NP40; eluted with 20 mM maltose; anti-FLAG blot; details: both partners purified
Rad50-C47 = biological target: T1, Rad50-C47 (Saccharomyces cerevisiae, UniProt P12753 1-1312, K1299R); assay: EMSA; 1 mM ATP-gamma-S, 5 mM Mg2+; comparable to WT; 25 mM Tris-acetate pH 7.5, 5 mM Mg chloride, 1 mM DTT, 0.25 ug/ul BSA, 1 mM ATP-gamma-S, 1 nM DNA, 15 min at 30 C; 6% PAGE in TAE on ice; details: protein: recombinant; tags: FLAG; chain copies: 2; label: PC210 3' 32P-dC added by TdT; blunt apart from the 3' TdT-added labeled dC on PC210
T1 sequence: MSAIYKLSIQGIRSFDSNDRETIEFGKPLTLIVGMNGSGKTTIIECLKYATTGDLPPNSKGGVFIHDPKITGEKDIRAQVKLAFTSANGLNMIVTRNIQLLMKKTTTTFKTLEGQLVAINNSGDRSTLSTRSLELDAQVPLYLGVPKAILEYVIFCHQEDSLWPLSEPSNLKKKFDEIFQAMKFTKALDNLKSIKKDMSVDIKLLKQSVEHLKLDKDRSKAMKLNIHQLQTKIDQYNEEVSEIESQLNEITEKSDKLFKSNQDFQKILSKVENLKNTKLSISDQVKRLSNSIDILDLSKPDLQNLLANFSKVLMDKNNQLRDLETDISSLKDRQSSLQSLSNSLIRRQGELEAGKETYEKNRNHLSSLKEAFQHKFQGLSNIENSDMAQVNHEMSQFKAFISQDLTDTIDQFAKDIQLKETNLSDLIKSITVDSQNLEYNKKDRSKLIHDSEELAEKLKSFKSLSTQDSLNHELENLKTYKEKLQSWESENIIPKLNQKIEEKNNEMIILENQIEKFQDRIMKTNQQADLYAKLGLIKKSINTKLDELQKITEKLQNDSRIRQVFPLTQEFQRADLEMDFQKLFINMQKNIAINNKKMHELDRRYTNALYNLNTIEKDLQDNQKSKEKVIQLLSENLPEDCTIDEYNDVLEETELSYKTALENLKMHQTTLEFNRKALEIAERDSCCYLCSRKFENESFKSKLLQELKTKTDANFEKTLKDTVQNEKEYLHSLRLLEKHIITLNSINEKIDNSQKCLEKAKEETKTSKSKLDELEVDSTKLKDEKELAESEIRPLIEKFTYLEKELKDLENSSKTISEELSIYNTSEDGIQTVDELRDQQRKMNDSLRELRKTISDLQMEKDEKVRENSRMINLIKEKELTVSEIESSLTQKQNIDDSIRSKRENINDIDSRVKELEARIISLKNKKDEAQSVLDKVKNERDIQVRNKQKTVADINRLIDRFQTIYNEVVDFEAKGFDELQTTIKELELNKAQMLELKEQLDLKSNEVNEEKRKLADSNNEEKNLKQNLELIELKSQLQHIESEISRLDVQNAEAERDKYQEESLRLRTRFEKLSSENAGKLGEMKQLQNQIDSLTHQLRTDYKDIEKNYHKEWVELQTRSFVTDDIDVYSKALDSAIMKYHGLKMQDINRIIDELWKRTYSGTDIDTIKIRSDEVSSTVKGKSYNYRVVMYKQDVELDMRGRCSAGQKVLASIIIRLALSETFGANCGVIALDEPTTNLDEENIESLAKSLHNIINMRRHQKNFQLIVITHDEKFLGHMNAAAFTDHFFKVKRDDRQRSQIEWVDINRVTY

Molecule: B1
stoichiometry N [1]: 2

B3: 70 bp dsDNA (PC210/PC211) (dsDNA)
DNA 1: GTAAGTGCCGCGGTGCGGGTGCCAGGGCGTGCCCTTGGGCTCCCCGGGCGCGTACTCCACCTCATGCATC
DNA 2: GATGCATGAGGTGGAGTACGCGCCCGGGGAGCCCAAGGGCACGCCCTGGCACCCGCACCGCGGCACTTAC
modifications: biotinylated dT in the oligonucleotides (Table S1; positions marked by bold underline, lost in the text)
binding result (Rad50-C47): binds

More lines, now with the values ahead:

stoichiometry N (Rad50-C47-FLAG (yeast)): 2
Molecule: Rad50-C47-FLAG (from UniProt P12753 1-1312) (natural protein)

binding result (Rad50-FLAG (wild-type)): binds
B2: phosphorylated MBP-Sae2 (natural protein, yeast, UniProt P46946 1-345, looked up)
chain: MVTGEENVYLKSSLSILKELSLDELLNVQYDVTTLIAKRVQALQNRNKCVLEEPNSKLAEILCHEKNAPQQSSQTSAGPGEQDSEDFILTQFDEDIKKESAEVHYRNENKHTVQLPLVTMPPNRHKRKISEFSSPLNGLNNLSDLEDCSDTVIHEKDNDKENKTRKLLGIELENPESTSPNLYKNVKDNFLFDFNTNPLTKRAWILEDFRPNEDIAPVKRGRRKLERFYAQVGKPEDSKHRSLSVVIESQNSDYEFAFDNLRNRSKSPPGFGRLDFPSTQEGNEDKKKSQEIIRRKTKYRFLMASNNKIPPYEREYVFKREQLNQIVDDGCFFWSDKLLQIYARC
modifications: phosphorylated (expressed in the presence of phosphatases inhibitors); sites not stated
notes: Sae2, yeast, from the pFB-MBP-Sae2-His vector expressing MBP and His-tagged Sae2; also called MBP-pSae2; source: Sf9, from extracts, held on amylose resin and washed
